In patent US6635429B1, “Heterodimeric nuclear receptors proteins, genes encoding same, and usage thereof” (Institut National de la Sante et de la Recherche Medicale, priority 1992, dated 2003):

Target: T1, hRAR-γ binding to β-RARE (Homo sapiens, UniProt P13631)
T1 construct: fused to the amino terminal amino acid of full length hRAR-γ; 14 amino acids from the parental vector pEt3a (bacterially expressed preparation only) (N); made in house; host or cells: E. coli BL21 (DE3) plysS; also rVV-infected HeLa cells, rBV-infected Sf9 cells, yeast (ubiquitin fusion) and rabbit reticulocyte lysate
T1 sequence (P13631 1-454): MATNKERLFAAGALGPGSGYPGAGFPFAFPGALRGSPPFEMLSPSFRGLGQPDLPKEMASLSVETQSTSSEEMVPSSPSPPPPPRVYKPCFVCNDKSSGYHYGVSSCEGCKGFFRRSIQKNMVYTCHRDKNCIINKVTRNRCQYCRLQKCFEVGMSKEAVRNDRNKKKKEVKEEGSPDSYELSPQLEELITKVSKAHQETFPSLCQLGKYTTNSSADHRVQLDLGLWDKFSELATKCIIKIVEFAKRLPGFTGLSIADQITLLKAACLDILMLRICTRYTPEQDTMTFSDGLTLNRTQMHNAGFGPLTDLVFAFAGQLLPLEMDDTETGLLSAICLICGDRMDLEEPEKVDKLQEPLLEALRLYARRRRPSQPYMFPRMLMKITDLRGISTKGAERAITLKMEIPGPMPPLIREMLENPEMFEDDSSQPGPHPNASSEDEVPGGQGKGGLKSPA
T1 sequence (P28702 1-533 partner): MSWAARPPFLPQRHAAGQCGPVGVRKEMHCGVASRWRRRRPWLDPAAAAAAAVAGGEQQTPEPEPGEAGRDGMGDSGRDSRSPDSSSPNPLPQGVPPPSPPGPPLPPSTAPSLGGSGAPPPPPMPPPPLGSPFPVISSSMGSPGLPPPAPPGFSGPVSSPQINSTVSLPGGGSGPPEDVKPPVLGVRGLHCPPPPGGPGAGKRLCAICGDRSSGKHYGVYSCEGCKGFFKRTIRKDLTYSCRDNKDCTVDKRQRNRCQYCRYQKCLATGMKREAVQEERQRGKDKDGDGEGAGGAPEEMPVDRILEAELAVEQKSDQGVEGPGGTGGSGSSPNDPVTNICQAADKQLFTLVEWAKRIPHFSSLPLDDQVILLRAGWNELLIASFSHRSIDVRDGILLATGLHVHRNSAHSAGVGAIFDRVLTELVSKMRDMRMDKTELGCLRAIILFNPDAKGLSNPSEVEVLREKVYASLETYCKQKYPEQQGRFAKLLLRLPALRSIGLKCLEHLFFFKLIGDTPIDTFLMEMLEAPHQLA
Assay: Gel retardation assay of RAR binding to β-RARE (RBF complementation)
Details: RBF activity, complementation gel retardation with bacterially-expressed hRAR-γ
Procedure: For gel retardation experiments comparing RAR and RXR subtypes and deletion mutants, all proteins were produced by in vitro translation in the presence of [^35S]methionine.
Purification of rVV- and rBV-expressed hRAR-γ is being described elsewhere (Chen et al., manuscript in preparation). […] All steps were carried out at 4° C. and RBF activity was monitored through all purification steps by a complementation gel retardation assay using bacterially-expressed hRAR-γ as described above. […] The column was washed with equilibration buffer until the A280 of the eluent returned to baseline. […] The column was washed with equilibration buffer until the A280 of the eluent returned to baseline and then with 4 column volumes of buffer A containing 0.45 M ammonium sulfate and 50 mM KCl. The column was then eluted with an 18 ml linear gradient from 0.45 to 0 M ammonium sulfate in buffer A containing 50 mM KCl.

B1: HAP-TSK: hydroxylapatite column-purified HeLa cell RBF, apparently homogeneous ~64 kDa polypeptide, predominantly hRXR-β (protein, UniProt P28702 1-533, looked up)
Retinoic acid receptor …: T1 sequence (P28702 1-533 partner)
With B1 the “Specific Activity” value was 7,750,000 cpm/μg.
